In US20230065562A1, “DUAL CONTROLS FOR THERAPEUTIC CELL ACTIVATION OR ELIMINATION” (Bellicum Pharmaceuticals, Inc., priority 2015, published 2023):
Where a chain is given by its changes, count along the chain named. Names and notes keep the numbering of the source. “Also recorded” adds a separate entry of the source.

B1: A316G: modified iCasp9, A316G (protein)
chain: VDGFGDVGALESLRGNADLAYILSMEPCGHCLIINNVNFCRESGLRTRTGSNIDCEKLRRRFSSLHFMVEVKGDLTAKKMVLALLELARQDHGALDCCVVVILSHGCQASHLQFPGAVYGTDGCPVSVEKIVNIFNGTSCPSLGGKPKLFFIQACGGEQKDHGFEVASTSPEDESPGSNPEPDGTPFQEGLRTFDQLDAISSLPTPSDIFVSYSTFPGFVSWRDPKSGSWYVETLDDIFEQWAHSEDLQSLLLRVANAVSVKGIYKQMPGCFNFLRKKLFFKTSASRA
B2: D330N: modified iCasp9, D330N (protein)
chain: B1 chain with G184A, D198N
B3: D330A-S196A: modified iCasp9 double mutant (protein)
chain: B1 chain with S64A, G184A, D198A
B4: D330G: modified iCasp9, D330G (protein)
chain: B1 chain with G184A, D198G
B5: D330A-S144D: modified iCasp9 double mutant (protein)
chain: B1 chain with S12D, G184A, D198A
B6: S144A: modified iCasp9, S144A (protein)
chain: B1 chain with S12A, G184A
B7: D330E: modified iCasp9, D330E (protein)
chain: B1 chain with G184A, D198E
B8: D330A-S144A: modified iCasp9 double mutant (protein)
chain: B1 chain with S12A, G184A, D198A
B9: S196A: modified iCasp9, S196A (protein)
chain: B1 chain with S64A, G184A
B10: L329E: modified iCasp9, L329E (protein)
chain: B1 chain with G184A, L197E
B11: S183A: modified iCasp9, S183A (protein)
chain: B1 chain with S51A, G184A
B12: D330S: modified iCasp9, D330S (protein)
chain: B1 chain with G184A, D198S
B13: N405Q-S144A: modified iCasp9 double mutant (protein)
chain: B1 chain with S12A, G184A, N273Q
B14: D330V: modified iCasp9, D330V (protein)
chain: B1 chain with G184A, D198V
B15: D330A-S183A: modified iCasp9 double mutant (protein, UniProt P55211 1-416, looked up, variant D330A S183A)
chain: MDEADRRLLRRCRLRLVEELQVDQLWDALLSRELFRPHMIEDIQRAGSGSRRDQARQLIIDLETRGSQALPLFISCLEDTGQDMLASFLRTNRQAAKLSKPTLENLTPVVLRPEIRKPEVLRPETPRPVDIGSGGFGDVGALESLRGNADLAYILSMEPCGHCLIINNVNFCRESGLRTRTGANIDCEKLRRRFSSLHFMVEVKGDLTAKKMVLALLELAQQDHGALDCCVVVILSHGCQASHLQFPGAVYGTDGCPVSVEKIVNIFNGTSCPSLGGKPKLFFIQACGGEQKDHGFEVASTSPEDESPGSNPEPDATPFQEGLRTFDQLAAISSLPTPSDIFVSYSTFPGFVSWRDPKSGSWYVETLDDIFEQWAHSEDLQSLLLRVANAVSVKGIYKQMPGCFNFLRKKLFFKTS
modifications: FKBP12-F36V fusion (iCasp9), CARD deleted
notes: modified iCasp9 double mutant
B16: ^402GCFNF^406QPTFT: modified iCasp9, residues 402-406 replaced by Caspase-8 QPTFT (protein, UniProt P55211 1-416, looked up, variant G402Q C403P F404T N405F F406T)
chain: B15 chain with A183S, A330D, G402Q, C403P, F404T, N405F, F406T
modifications: FKBP12-F36V fusion (iCasp9), CARD deleted
notes: modified iCasp9, residues 402-406 replaced by Caspase-8 QPTFT
B17: Y153A: modified iCasp9, Y153A (protein, UniProt P55211 1-416, looked up, variant Y153A)
chain: B15 chain with Y153A, A183S, A330D
modifications: FKBP12-F36V fusion (iCasp9), CARD deleted
B18: N405Q-S144D: modified iCasp9 double mutant (protein, UniProt P55211 1-416, looked up, variant N405Q S144D)
chain: B15 chain with S144D, A183S, A330D, N405Q
modifications: FKBP12-F36V fusion (iCasp9), CARD deleted
notes: modified iCasp9 double mutant
B19: D330A-Y153F: modified iCasp9 double mutant (protein, UniProt P55211 1-416, looked up, variant D330A Y153F)
chain: B15 chain with Y153F, A183S
modifications: FKBP12-F36V fusion (iCasp9), CARD deleted
notes: modified iCasp9 double mutant
B20: S307A: modified iCasp9, S307A (protein, UniProt P55211 1-416, looked up, variant S307A)
chain: B15 chain with A183S, S307A, A330D
modifications: FKBP12-F36V fusion (iCasp9), CARD deleted
B21: D330A-T317E: modified iCasp9 double mutant (protein, UniProt P55211 1-416, looked up, variant D330A T317E)
chain: B15 chain with A183S, T317E
modifications: FKBP12-F36V fusion (iCasp9), CARD deleted
notes: modified iCasp9 double mutant
B22: N405Q-S144Aco: codon-optimized double mutant, class predicted (protein, UniProt P55211 1-416, looked up, variant N405Q S144A)
chain: B15 chain with S144A, A183S, A330D, N405Q
modifications: FKBP12-F36V fusion (iCasp9), codon-optimized
notes: codon-optimized double mutant, class predicted
B23: N405Qco: codon-optimized version of N405Q modified Caspase-9 (protein, UniProt P55211 1-416, looked up, variant N405Q)
chain: B15 chain with A183S, A330D, N405Q
modifications: FKBP12-F36V fusion (iCasp9), codon-optimized

System: HEK293T/16 cells
Assay: Secreted alkaline phosphatase (SEAP)-based surrogate killing assay of iCasp9 mutants
Type: cell-based, human
Conditions: for Basal Activity (relative to wild type/unmodified Caspase-9): SEAP assay without AP1903
Description: Early passage HEK293T/16 cells (ATCC, Manassas, Va.) were maintained in IMDM, GlutaMAX™ (Life Technologies, Carlsbad, Calif.) supplemented with 10% FBS, 100 U/mL penicillin, and 100 […] until transfection in a humidified, 37° C., 5% CO2/95% air atmosphere. Cells in logarithmic-phase growth were transiently transfected with 800 ng to 2 μg of expression plasmid encoding iCasp9 mutants and 500 ng of an expression plasmid encoding SRα promoter driven SEAP per million cells in 15-mL conical tubes. […] GeneJammer® Transfection Reagent at a ratio of 3 μl per ug of plasmid DNA was used to transiently transfect HEK293T/16 cells in the absence of antibiotics. 100 μl or 2 mL of the transfection mixture was added to each well in 96-well or 6-well plate, respectively.
Briefly, after 65° C. heat denaturation for 45 minutes to reduce background caused by endogenous (and serum-derived) alkaline phosphatases that are sensitive to heat, 5 μl of supernatants was added to 95 μl of PBS and added to 100 μl of substrate buffer, containing 1 μl of 100 mM 4-methylumbelliferyl phosphate (4-MUP; Sigma, St. Louis, Mo.) re-suspended in 2 M diethanolamine. Hydrolysis of 4-MUP by SEAP produces a fluorescent […] with excitation/emission (355/460 nm), which can be easily measured. Assays were performed in black opaque 96-well plates to minimize fluorescence leakage between wells. […] of the mixture was seeded onto each well of a 96-well plate. […] For the assay, 4-methylumbelliferyl phosphate substrate was hydrolyzed by SEAP to 4-methylumbelliferon, a metabolite that can be excited with 364 nm and detected with an emission filter of 448 nm. Since SEAP is used as a marker for cell viability, reduced SEAP reading corresponds with increased iCaspase-9 activities.

Row | Molecule | Basal Activity (relative to wild type/unmodified Caspase-9) | Basal Activity (relative to wild type), predicted mutants (*) (marked '*, predicated')
1 | B1 | lower basal activity; also recorded: Decreased | –
2 | B2 | less basal activity than wild type Caspase-9; also recorded: Decreased | –
3 | B3 | Decreased | –
4 | B4 | less basal activity than wild type Caspase-9; also recorded: Decreased | –
5 | B5 | Decreased | –
6 | B6 | Decreased | –
7 | B7 | less basal activity than wild type Caspase-9; also recorded: Decreased | –
8 | B8 | Decreased | –
9 | B9 | Decreased | –
10 | B10 | Decreased | –
11 | B11 | Decreased | –
12 | B12 | less basal activity than wild type Caspase-9; also recorded: Decreased | –
13 | B13 | Decreased | –
14 | B14 | less basal activity than wild type Caspase-9; also recorded: Decreased | –
15 | B15 | Decreased | –
16 | B16 | dead | –
17 | B17 | Decreased | –
18 | B18 | Decreased | –
19 | B19 | dead | –
20 | B20 | Decreased | –
21 | B21 | dead | –
22 | B22 | – | Decreased
23 | B23 | Decreased | –
